From FireProtDB (doi:10.1110/ps.8.12.2645)

Settings: Saccharomyces cerevisiae (strain ATCC 204508 / S288c), pH 6, Thermal, DSC, Sodium phosphate 0.1 M, reversible: yes

Chain of Cytochrome c isoform 1 F88Y|L91A, P00044 F88Y L91A (P00044 whole entry F88Y/L91A, canonical isoform): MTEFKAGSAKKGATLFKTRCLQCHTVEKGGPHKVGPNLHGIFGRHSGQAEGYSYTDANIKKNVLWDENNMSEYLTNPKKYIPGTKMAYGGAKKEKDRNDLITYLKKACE
Chain of Cytochrome c isoform 1 wild type, P00044 (P00044 whole entry, canonical isoform): as the sequence (P00044 whole entry F88Y/L91A, canonical isoform) above, with Y88F, A91L counted along it
Chain of Cytochrome c isoform 1 L91A, P00044 (P00044 whole entry L91A, canonical isoform): as the sequence (P00044 whole entry F88Y/L91A, canonical isoform) above, with Y88F counted along it
Chain of Cytochrome c isoform 1 F88Y, P00044 (P00044 whole entry F88Y, canonical isoform): as the sequence (P00044 whole entry F88Y/L91A, canonical isoform) above, with A91L counted along it

Substance	ddG of mutation (higher = less stable) (25 °C, structure 1YCC) [kcal/mol]	heat capacity change of unfolding (25 °C, structure 1YCC) [kcal/mol/K]	unfolding enthalpy (calorimetric) (25 °C, structure 1YCC) [kcal/mol]	unfolding free energy (25 °C, structure 1YCC) [kcal/mol]	unfolding enthalpy (calorimetric) (60 °C, structure 1YCC) [kcal/mol]	unfolding free energy (60 °C, structure 1YCC) [kcal/mol]	Tm (structure 1YCC) [°C]	heat capacity change of unfolding (structure 1YCC) [kcal/mol/K]	unfolding enthalpy (calorimetric) (structure 1YCC) [kcal/mol]	unfolding enthalpy (van 't Hoff) (structure 1YCC) [kcal/mol]	heat capacity change of unfolding (25 °C) [kcal/mol/K]	unfolding enthalpy (calorimetric) (25 °C) [kcal/mol]	unfolding free energy (25 °C) [kcal/mol]	unfolding enthalpy (calorimetric) (60 °C) [kcal/mol]	Tm [°C]	heat capacity change of unfolding [kcal/mol/K]	unfolding enthalpy (calorimetric) [kcal/mol]	unfolding enthalpy (van 't Hoff) [kcal/mol]
Cytochrome c isoform 1 F88Y, P00044	0.7	0.58	27	4.8	83	1.01	55.8	0.58	76	103								
Cytochrome c isoform 1 F88Y|L91A, P00044 F88Y L91A					80		45.6	0.31	57	92								
Cytochrome c isoform 1 L91A, P00044	2.8	0.45	23	2.7	79	2.9	46.3	0.45	57	88								
Cytochrome c isoform 1 wild type, P00044											0.26	26	5.5	81	60	0.26	81	110
